Results: patent publication US20150104459A1

Legend:
[1] = biological target: M2 protein of influenza A/Japan/305/57 (H2N2), on inactivated whole virions (influenza A virus A/Japan/305/57 (H2N2)); test: ELISA, positive control antibody on inactivated whole virions
[2] = biological target: recombinant soluble homotrimeric HA of A/common magpie/Hong Kong/5052/07 (H5N1) (Influenza A virus A/common magpie/Hong Kong/5052/2007 (H5N1)); test: HA microarray, control mAb

Sequence of TCN-032 (8I10) (antibody) (VH): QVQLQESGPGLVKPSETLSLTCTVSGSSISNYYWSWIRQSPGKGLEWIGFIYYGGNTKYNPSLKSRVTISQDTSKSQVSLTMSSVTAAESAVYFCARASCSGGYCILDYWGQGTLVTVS
Sequence of TCN-032 (8I10) (antibody) (VL): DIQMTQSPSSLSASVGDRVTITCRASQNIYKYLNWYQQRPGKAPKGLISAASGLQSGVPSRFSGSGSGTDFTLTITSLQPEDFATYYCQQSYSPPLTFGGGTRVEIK

Substance	ELISA virus binding (OD450) [1] [OD450]	Trimeric HA Binding RLU [2] [RLU]
TCN-032 (8I10) (antibody)	3.61	–
TCN-202 (2N9) (antibody)	–	162
